# ± gives the half width of the 95% confidence interval.
# Tests used:
# [1] = folding stability dG unfold from trypsin proteolysis; higher = more stable
# How it was run: (§1)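 Sequencing followed digestion of designed mini-proteins with trypsin and chymotrypsin, each at 11 concentrations in threefold dilutions together with a no-protease condition. The mini-proteins were under 80 residues, had no cysteine, sat in a PA-tagged cDNA display construct, and were kept only if AlphaFold2 dimer inter-PAE was above 15. From the counts, Bayesian fitting gave K50, and unfolding free energy was derived against a sequence-predicted unfolded-state K50 and a shared folded-state K50, per protease or combined.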
# [2] = folding stability dG unfold from chymotrypsin proteolysis; higher = more stable
# How it was run: as §1
# [3] = folding stability dG unfold (combined trypsin and chymotrypsin); higher = more stable
# How it was run: as §1
Sequence,folding stability dG unfold [1] [kcal/mol],folding stability dG unfold [2] [kcal/mol],folding stability dG unfold [3] [kcal/mol]
SAGWISPKQLRHALRNGKPIKIYMPNPQNKEHAKNWLRQETGLPKEEQKELLKDVKIEPMPPNDPNFKKSAG [r5_368_TrROS],0.128 ± 0.33,0.497 ± 0.47,-0.0521 ± 0.45
SAHRIMIMFDSPEQAEEIIRKIAEEMGWKPKNIDVEVHPFPVTRPTPDGKKEEHPMYWVTIEIKLKPKKSAG [r14_773_TrROS],1.94 ± 0.066,2.84 ± 0.096,2.37 ± 0.27
SAGGKTLVITVEAPPEDWDKILELAREALELGGDVVVVAPFPDGLTVTVRAEKPLGKIVEVTVAPDDASAGG [r13_873_TrMRF],0.578 ± 0.053,1.5 ± 0.071,1.15 ± 0.095
SAGGSEFIPVVAEFPEDVTPEDVARAVRELERAGFVVERVEVERFPDPDGRERYRVRVVLRRPEELSAGGSA [r2_442_TrMRF],3.53 ± 0.081,3.841 ± 0.0097,3.732 ± 0.035
SAGGSAGGSAGMETIRLTFTVPGPDDRYYRVSVEARINPPTGEIEILRVEITPLDNPDAISAGGSAGGSAGG [r11_777_TrMRF],3.09 ± 0.12,3.93 ± 0.035,3.69 ± 0.052
SAGGSAGGSAGRRVTINHNPENGFFRVKVYPPKGKSQVYPIPMENLEEIKKNLPPGVEIVSAGGSAGGSAGG [r11_569_TrROS],0.206 ± 0.12,-0.511 ± 0.24,-0.102 ± 0.12
SAGGSFEVEVEVERYPEENYYYVKIPIRLPNNGKKIPLDVPVPADDPEPAEKWAKFIAKELAKQGISAGGSA [r2_221_TrROS],-0.0866 ± 0.14,-0.1 ± 0.27,-0.1 ± 0.23
NIRITDIEMYPFPNNNQPQMEFTLEWPNGPRRTVEFELPGQEMEVYVDPKKGEIWFYFPNNGMFMKITIEPS [r1_125_TrROS],1.37 ± 0.068,2.97 ± 0.1,2.63 ± 0.35
ADPDVKVEVEFEVLPDGRLRVTAVDPDTGVVVEVEAPVDGAGPVTVRVRVRVFDPETGEVSTFEAEFTLPLS [r1_45_TrMRF],3.71 ± 0.12,4.33 ± 0.15,4.14 ± 0.17
SAGGSAGGSAGGIKPGEKPVYKVKIYNEETGEELEVEFKTLEELEKLKIPGVKKIEVEKVSAGGSAGGSAGG [r7_793_TrROS_Hall],0.786 ± 0.16,1.35 ± 0.045,1.2 ± 0.2
SAGGSSPLLSPVTLTREVPASEPMAPEEVEAFAAAVAAEVAAAGMTVDFSVERHPDREVLTVTVTVASSAGG [r13_442_JUSTAS],-0.372 ± 0.1,0.678 ± 0.046,0.373 ± 0.056
SAMVLVKIELYDPENEEPLATAEFVVPEEDLEAFVEEAKKIFGVAEDAFIKVEAAPLEPLTDESGEEVLSAG [r14_297_TrMRF],2.08 ± 0.12,1.786 ± 0.014,1.94 ± 0.062
SAGGMADEELANMSLEEVIAAVKEAGAKTVTVTFPDGSTLTIDLGDDGVVTVTLTTPPGEKETFEIPSAGGS [r8_51_TrMRF],2.34 ± 0.17,2.73 ± 0.088,2.59 ± 0.11
SAGGSAGGSAMKYKVTVTTTPPDGTTTTTPTVVDFKSKEEIEEYVKKKAPKDTKVEVEIEPESAGGSAGGSA [r18_60_JUSTAS],-0.228 ± 0.085,0.0584 ± 0.22,0.0447 ± 0.19
SAGGSAGGSKMRERTITFPNAKITIWYHPDGNVRMEVMNPGNGKPKREIWMKPGDIEEILKKFSAGGSAGGS [r20_129_TrROS],1.62 ± 0.043,2.58 ± 0.038,2.32 ± 0.049
SEMTAEELAARLAERLAEEHPGEEVTVEIEVEAEVVDEETGETRTVRVTVTLRFRDGKVEVVDVKVEELPSA [r9_361_TrROS_Hall],3.43 ± 0.092,4.49 ± 0.066,4.18 ± 0.086

Sequence,folding stability dG unfold [1] [kcal/mol],folding stability dG unfold [2] [kcal/mol],folding stability dG unfold [3] [kcal/mol]
SAGGSAGGSGTSTKINILLPVKPGETVKLKVEVNLNSKKVLFYVDVKKNPVGNYLSATFTVTGSAGGSAGGS [r12_136_TrMRF],2.75 ± 0.3,4.42 ± 0.12,3.85 ± 0.23
SAGGSAGGKKKYRALITLRSKDGKPIAPIEIETDSPEELLKTAKKIIEEATKENEPVEIKVEEYSAGGSAGG [r6_285_TrMRF],1.09 ± 0.054,1.8 ± 0.093,1.59 ± 0.11
SAGGNAKEIASYLADWFQERFPPNMKVKVSVTVTPDGIVVRIRMPGGWQFEITIKDGKLQEIEWTPYSAGGS [r8_287_TrROS],2.72 ± 0.07,2.874 ± 0.026,2.79 ± 0.067
SAGGMKTFTLENPPLAPPDRPLGGSTLKLPDGTVLVRINLPSGETILLPSYEELEKLKASGEPVSVTASSAG [r5_42_JUSTAS],0.285 ± 0.055,0.254 ± 0.15,0.348 ± 0.12
SAGGSAGGSAGGNVRLTVTLDENGRLRVTAEVEVTNENGEKKTYRLTLTLKLKPGQTLTSAGGSAGGSAGGS [r10_763_TrROS_Hall],2.9 ± 0.054,3.863 ± 0.024,3.55 ± 0.13
SAGLNIPPEMTVDELVEFLKSLGVKSYKVEKTEDPESYVVTFEFPDFTVVMTFHPDSVTITVVPKDEPLSAG [r5_899_TrMRF],3.14 ± 0.11,3.52 ± 0.061,3.34 ± 0.14
SAGLKFSITKAEWENGYLTVKVMVTGPDGQSQPFTITIRIKPVPKPPPKMTEEKDPNGKKKWEYKDPDSAGG [r19_172_TrROS],2.26 ± 0.11,2.6 ± 0.072,2.47 ± 0.24
SAGGEKTTLTLTLTLTLPPVTTVTYDPETGELRVETRTTTLTLTITVTADSPEEAERALRELLKKLGLSAGG [r13_35_TrROS_Hall],4.4 ± 0.17,6.41 ± 0.27,> 6
SAGGSAGGSKNMVMVEIPFEHKVKQPDPPDGKWRQHEHKPTIPYMIPPEDAEELLNSPALKKISAGGSAGGS [r12_1015_TrROS],0.138 ± 0.2,0.0107 ± 0.21,0.043 ± 0.19
SAGGSAGGSAGGMVTTLEVTVSPDGVITVTTVTTDAAGTPVTTTTTTTVLGPGGPVLAVSAGGSAGGSAGGS [r10_484_JUSTAS],2.05 ± 0.13,2 ± 0.044,2.03 ± 0.12
SAGGPPIRIKVELWDPNGKEYTHTFPFGEPLDQILDNASKQFGLPLRVEDIEYDPDGMITITIRIPDSAGGS [r8_285_TrROS],1.75 ± 0.036,1.77 ± 0.027,1.8 ± 0.1
MSEKTFVVEVKVESPEEAEELIEKLKEKLSGEKYEVKIEKVEVSPDGTVKVHITFKPGVPEEFIKKALEEES [r1_485_TrMRF],2.28 ± 0.13,2.97 ± 0.086,2.7 ± 0.11
SAGGLSYIELEVEFPGGGSFEEAKARAEKLAEEVRKKLGLKEVKIEIKKNPDGSYRVKITIKVPSKLSAGGS [r8_3_JUSTAS],2.76 ± 0.063,3.04 ± 0.077,3.02 ± 0.14
VDLGIRTESVGGRRYRVLIRRPGTGEPRVLEVEGTLEEARERALREIREEYPDLPVRSINPVPVPAPPWLES [r1_80_TrMRF],-0.153 ± 0.19,-0.154 ± 0.14,-0.139 ± 0.15
SAGGSAGGMNIQILKVDPDNGTITLAIPVDNWIVAISIKIRPDPNNPGMFKLDIDIHWFPADDISAGGSAGG [r6_372_TrROS],3.77 ± 0.14,4.44 ± 0.11,4.28 ± 0.091
